Assay: label from the status in PepcDB records
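Further: failed if final PepcDB status was selected cloned or expressed and not failed if soluble or beyond.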

| Sequence | protein production |
| --- | --- |
| MTEIKYKVITKDAFALPYTIIKAKNQPTKGVIVYIHGGGLMFGKANDLSPQYIDILTEHYDLIQLSYRLLPEVSLDCIIEDVYASFDAIQSQYSNCPIFTFGRSSGAYLSLLIARDRDIDGVIDFYGYSRINTEPFKTTNSYYAKIAQSINETMIAQLTSPTPVVQDQIAQRFLIYVYARGTGKWINMINIADYTDSKYNIAPDELKTLPPVFIAHCNGDYDVPVEESEHIMNHVPHSTFERVNKNEHDFDRRPNDEAITIYRKVVDFLNAI | failed |
| MTEIYTSVLSYRLLEGKAYSDADTRSLDRMMRSIDEFFSANPGYINFHIYRSYRTDSDVIFWYSSRNPDLMILAKERVQASMRPIAVSSFSSISIYDESPYNAMNKKLEDSLRLPPLRYFVAYPMSKTPDWYLLDFDTRKEIMHEHIKMALNHPDEKGIRSYTTYSFGIGDQEFVVLYEIPDIAAWSRVTEKLREARARKWIIKETPILLGRLVDAGDIAGFLL | not failed |
| MTELATMEFHAQPQAGEPKPWAFPAPERGSLDNGLTVLRCHRPGQQVVAVEVLLDAPLDAEPAGLDGVATIMARAFSEGTDKHSAEDFAAELERCGATLDAHADHPGVRLSLEVPASRLGKALGLLADALRAPAFADGEVERLVRNRLDEIPHELANPSRRAAKELSKELFPADARMSRPRQGTEETVETIDSAAVRAFYERHVRPATATAVVVGDLTGVDLDALLADTLGAWTGSAAEPRPVPPVTADDRGRVVIVDRPGAVQTQLLIGRTGADRHDRVWPAQVLGTYCLGGTLTSRLDRVLREEKGYTYGVRAFGQVLRSAPDGTGAAMLAISGSVDTPNTGPALEDLWTVLRKLAAEGLTDAERDVAVQNLVGVAPLKYETAAAVASTLADQVEQHLPDDFQATLYRQLAATGTVEATAAVVNAFPVDRLVTVLVGDAAQIKEPVEALGIGEVTVVAAE | failed |
| MTELEDPSRDRLKHHFAQRVIHQARQILETWQRLQKAQWSVADMAELKEATLRLMRFAERFEQAEHVALAHEINQSLDAVDANRGRLNSHVITELNRLMQRLSRTGLRHGDRLEQTSLPPLRKPVYVVLQDHERAERLAKQLEFFGLSALSLHSVADFQRAMAQRHPAAIVMDVDFSGPGMGLELASQAQEGLEQKLPLLFFSVHETDTPTRLAAVRAGGEEFLTGALEASSLLEKIEVLTCVAQYEPYKVLIIDDSRAQAMHTERVLNAAGIVTRVLIDPIQAMSELADFQPDLIILDMYMPGCTGTELAKVIRHNDRYVSVPIIYLSAEDDQDKQLDAMSEGGDDFLTKPIKPRHLITTVRNRAARARNLKSRMVRDSLTGLYNHTHILQLLEDCSFRSRREGKPLCFAMLDIDHFKRVNDSHGHPMGDRVIKSLALFLKQRLRKTDFIGRYGGEEFAIVMPDTDIHNAHKVLDEIRHRFAEIHYPAQPADLFCTFSAGVVCLGADDDSLSLASQADNALYRAKHAGRNQVHSALVQAPYHIVLAEIEA | failed |
| MTELGTVLDGKYEILKKVGQGGMSIVYLAMDNRLNKQWAVKEIKNDGSKSTATLLKSLEREANILKDVDHPVLPRIVDIINENGTIYVVMDFVEGKPLSDVLKAEGAQDQNKVIEWGRALASALDYLHSMNPPIIYRDMKPSNVMLKPDGSVKLIDFGTAKEYIVENNADTTALGTRGYAAPEQFGDSQGRGIYNTDARTDIYNLGATLYHLVTGKNPCEPPYEIKPIRQWNPTLSSGFEQIIIKCCQPSPEDRYQSCSELLYALDHYNELDNEFKAKAKRKVAVFATMAGLSILSGCCAIFGGVKKGQLKEQDYNNKIAEAEDAVDSSDYNKAFECYKAAVDIDPTASEAYIGYMDTYAYYYTDEDVATGTGTETPAEKGIKFALRNIDKVKDDVKYEIALLYFNEVPDYSAARKYFNMVGDTENFANDVKQAKYYEAICDNKINKTADFNDSKQEVFDFQQYNSDNIDDTNTYKYVNYLNIATIYVDKLSSDEELANRTIELLQEASDKLNDNATVLSKEFPEERGVNYYSGQYSAILCSVYTYLAEKESDPVEQVAYYREAINSIDSYLSGLDMNGDAVTEKTKNVYAEYSRKKAEIYVSMGDISGDDKNYELAENVYLSAEQMLGVDDYSADLYTSHLTYLYNRYTDLYGSAPDTWDKSARNTVISVYNSGSRISMLADGKKPQWNTLIHKPVIEAIVSGTGSKTGK | failed |
| MTELRPGGPMYGPTPPLPLPTDRLQFAMPPMYESLDDERTHRKERLAGALRLFGRLGFEDGVSGHITARDPEYSDCFWVNPFGMPFKHVTVSDLVMVNASGQVIEGRYHVNQAAFTVHAQVHAARPDVVAVAHCHSVHGRALSALGDLLDPITQESCAFYEDHALYDAYTGVAVDAEEGRRIASALDTRKALVLRNHGLLTVGDSVDAAAWWFVSMERSCQVQLTARAAGRPVLIDHKQAVATREQLGGDLVAWINYQPLWQDISRSEPDLLS | failed |
| MTEMQSLRHRLIRQPGPVSGECWIAFFDGVAHPVLIKNAQGQVIFANRAACDLLGRDRSGLAGGAEHELVAGTQAEQIASFDAEAMRRGSVSAEQEMPGPRGVRRFLVSRRPAGEHLVVTFFEITDLRETEGVLRQREAHLRNLLELHPVAPFSFTADGVLSDLSDRLVAITGLPAGTRHVDAWWAAMHPCDRRDLRRAWIRSVRGGQSFDAEHRLQMPDGAYRWFRARIVARPRDQDQRVDRWFGIIEDVHERRTTVEQLRESEARFRAFADDAPVMIWVTDTEGRNVFVSRSWLGATGQSLDEALGTGWIDAVHPDDRDATAAITREAMRRRIAYTNEFRIRRKDGGWCWVIDVGHPRLLADGTFIGYIGCCVDISARRQAEDDRVMAQLQVFHMARHDMLTGLPNRHYFGDCYQEAVASLAPERSVAVLMLDLDGFKTVNDTRGHPVGDQVLCEVANRLRTSVRSTDTVARLGGDEFAVIQTPIRSEQEACDLARRLIAAISKPFDLEGAVPEVGASVGIAFARGHGDSAEEIMRYADVALYAAKQAGRGTFRVFDEATDTHLQSRQKMKAALRAALGLGELSVFYQPLIGLRDGQVTACEALMRWHRKGAGWITPDQFIPLAEEAGLIGDMGDWVLHEACAQAARWPDSVSVAVNLSPLQFHGGALVDQVASALRASGLPPERLQLEITESVLLDPTDRNIGVLQDLRALGAKIVMDDFGTGYSSLGYLRSFPFDKIKVDRSFIRDLPDAREALAILKAVAGLGRSLDMRTTVEGVETQAQLDCAIAEGVDEAQGYFFSRPLPAPGIASFISGCLPKRRIQPATGDAAT | failed |
| MTENELLTRCGGKCELCGSDVELAIYDLPASDGHENEIMICENCSSQIAAPDTMDMNHWRCLNDSMWSQVPAVQVMSYRMLKRLSGESWAQDLLDMLYLEDDLRAWGDAEAAAASDDTPPTLDSNGAVLNAGDTVVIIKDLNVKGTSFVAKRGTAVRNIALTNNPEHIEGRVNGTRIVILTCFVKKSLEHHHHHH | not failed |
| MTENTKISLIVQEADYNDVGRGYAKINNDVMAKLGVESGDFIKITGKRMGAAKVMRSSVSGSGGIAIDGDIRRSAGAGIGDTVTVEKVVPKTAAKITLQPISQSIRLDSRALEQTIQSKFAGRPITKGQIMTFGFQTKSEDPFFSGWGGFSNYNTEYVDFAVSDVSPGDVAIIGSETTVNYKDSVYKGEDAPKGKSAGNIHYEDIGGLGRELSLVREMIEYPLRHPEVFEKLGIEPPKGVLLYGPPGTGKTLIARAVANEAGAYFDTISGPEIISKYYGDSEEKLREIFEKAEENAPSIIFIDEIDSIAPKREESKGEVERRVVAQLLSLMDGLKSRGKVIVIAATNLPDSIDPALRRGGRFDREIEIGVPDKDGRREILQIHARNVPLSENVKLEKYANTTHGFVGADLALMVKEAAMHALRRAFPGMNPDEEISAEKLENLKVTAEDFESALKMVQPSAMREVLVEVPDIHWADVGGLDSVKEELQQAVEWPLKYREVYKQFATKSPKGFLMFGPPGTGKTLLAKAVANESECNFISVKGPELMSKWVGESEKGIREIFRKARLASPSIIFFDEIDSIVPRRGSYEGSSHVTESVVSQFLTELDGLEELKNVVVIGATNRPDMIDPALLRPGRLEQHIFVPPPDREGRKQILDVYIKDISSMLAEDVNLDELVDKTEGFVGADIEALVREAKMVAIREFVKVMAGHDAAEITLAVSSVKVFGRHFDAALKRVRPSLDKEGRRSAERGSWQYRFNEEERKTLEKGISVVETAEYKDAGSTPELRELDELLMAHQKDFSRIKEIIKTADA | failed |
| MTEQFVIIILLIALGYFLKRMNYLKATDSQVLSTLVLNVTLPSLVIVNLNSAKLDVSFSILPIMMIIYGIVAKIIVIWFFRKYDNHMRGSVGMMTGSMNIGLFAYPLVEAIWPSKGMIYFGMVDIGGAIIMFGITYFVGSYFSEGSDQFNFKFLGKKLVQSVPLVTYMIMFGLNMSHIHIWQPAIDFFSVLSKANMPLSMILLGVMLNFSIEREYLPVTIKYLCLHYGLGMLAGTLVHFLLPVSDDMIKTTLLITWLLPVGVAIIPYSIQFKYKTLPFVGMVTNLTIIISIIILYIYQAVFV | failed |
| MTESESASGMDGVVLGGTASGVGKTVATLAVARALADAGHDVQPAKAGPDFIDPSHHEPVVGTPSRSLDPWLSGTDGMRRTYHQGDGDVCVVEGMMGLYDGSVASTARVASELDLPVVLVVDASAGMQSVAATALGFQAYAAEASVDVDVAGVLAQRAHGGRHADGIRDALPDSLTYFGRVPPRDDLDVPDRHLGLHMGSEAAIDDDAVDAAAAHVAAKRIADVARTPPRPPAHDPAPDTGQTVAVADDAAFCFAYPATRERLRERADVVTFSPVAGDDLPACDGVYLPGGYPELHTDALADAPALDTLGARAADGLPVLGECGGLMALAESLTTTDGDTAEMAGVLPADVRMQDRYQALDHVELRATGDTLTAGSGATLRGHEFHYSAATVASDARFAFAVERGDGIDGDHDGLTEYRTLGTYAHVHPESTAFDAFLDAL | failed |
| MTESIVCHKCQEAITKRMITALGKTWHPEHFLCHHCDEQILDATFNVQSGEPVCNKCFVERYTYTCAGCKKPILEKTICAMGESWHEDCFCCGGACKKPLANQTFYERDGKPYCKKDYEDLFAARCAKCEKPITDSAVLAMNVKWHRDCFRCNKCENPITSQTFTIDGDKPVCPACNC | failed |
| MTETESKWDEKLKRFFKDYYWNEILQLANEYPDQRSLAVDFTDIEKFDRDLSREFLEHPGELISAAEAALKEIDLPVEKNLEQAHVRVIKIPNRIPIRELRSKHLTRFVAIEGMIRKATEVRPRITKAAFQCLRCGHLTIVEQNSFKFEEPFAGCEEETCGKKGPFKVSIEDSTFIDAQKLQIQESPENLKGGSQPQSLEVDSEDDLTGNVTPGDRVIINGVLKSRQRTLKDGKSTFYDLILEANSIERLDKDYDELEISAEEEEQILELSRDPAIYEKIISSIAPSIYGYEDIKEALALQLFSGVVKNLPDGSRTRGDIHMMLVGDPGIAKSQLLRYVVKLSPRGVFASGRSASASGLTAAAVKDDMNDGRWTIEGGALVMADMGVAAVDEMDKMRTEDKSALHEAMEQQTISIAKAGIIATLKSRCALLGAANPKYGRFDRYEGLADQINMPPALLSRFDLIFVLLDTPNHSLDSRIANHILQSHYAGELSEQRQKLPGSTISEEFVDAEMEIIEPVIAPEFMRKYIAFARKNVYPVMEEDTRHHLINFYTDLRRSGEGKNTPVPVTARQLEALVRLSEASARVRLSNIVTLEDAKRTIRIVMNCLKNVGVDPETGALDADILASGTSMSQRNKIKLLKDIIKKVSDRHPGSKAPLEEVYAEAESEHGIDRGHAEEYIKKMKQRGDILSPDQTHIRLIN | failed |
| MTETFNPDLDLKISRIIKAPRRLVWNAWTDKTSLEQWWVPHPGQCRVDKMELHPGGAFETRYSEDGREFGQHVSGCFLAVDHEQRLIFTDALTAGFRPSAQPFLTAVMTFRDHPDGMEYEAYAMHNNLADRDRHAEMGFFDGWNTVAEQLAQLVEKQAAH | failed |
| MTETIKCIGCGVEIQTEDKNEVGYAPASSLEKEQVICQRCFRLKHYNEIQDVSLTDDDFLRILNGIGKSDALVVKIVDIFDFNGSWLPGLHRFVGNNKVLLVGNKADLIPKSVKHDKVKHWMRYSAKQLGLKPEDVFLISAAKGQGIAELADAIEYYRGGKDVYVVGCTNVGKSTFINRMIKEFSDETENVITTSHFPGTTLDLIDIPLDEESSLYDTPGIINHHQMAHYVGKQSLKLITPTKEIKPMVFQLNEEQTLFFSGLARFDYVSGGRRAFTCHFSNRLTIHRTKLEKADELYKNHAGDLLSPPTPEELENMPELVKYEFNIREPKTDVVFSGLGWVTVNEPGAKIVAHVPKGVSVSLRKSLI | not failed |

Source: a protein production outcome set (Wang et al. 2014)
